Data taken from PMC4802056.

Target: taxol-stabilized microtubules
Assay: co-sedimentation; microtubule spin-down from DT40 lysates (about 2 mg/ml) mixed with taxol-stabilized microtubules (0.2 mg/ml) or non-taxol tubulin, 30 °C 30 min, pelleted through a 1 M sucrose cushion in BRB80, western blotting

fold reduction in microtubule binding compared with CEP215-TAP and CEP215(ΔHBR)-TAP: 3.4 fold
Substance: CEP215(ΔCM1)-TAP (domain or fragment)
